Measurements: patent publication US20050266465A1 (MAXYGEN, published 2005)

T1: interferon-alpha receptor (type I interferon receptor comprising receptor subunits IFNAR-2 and IFNAR-1) (human, UniProt P17181 28-557; P48551 27-515)
T1 sequence (looked up) 1: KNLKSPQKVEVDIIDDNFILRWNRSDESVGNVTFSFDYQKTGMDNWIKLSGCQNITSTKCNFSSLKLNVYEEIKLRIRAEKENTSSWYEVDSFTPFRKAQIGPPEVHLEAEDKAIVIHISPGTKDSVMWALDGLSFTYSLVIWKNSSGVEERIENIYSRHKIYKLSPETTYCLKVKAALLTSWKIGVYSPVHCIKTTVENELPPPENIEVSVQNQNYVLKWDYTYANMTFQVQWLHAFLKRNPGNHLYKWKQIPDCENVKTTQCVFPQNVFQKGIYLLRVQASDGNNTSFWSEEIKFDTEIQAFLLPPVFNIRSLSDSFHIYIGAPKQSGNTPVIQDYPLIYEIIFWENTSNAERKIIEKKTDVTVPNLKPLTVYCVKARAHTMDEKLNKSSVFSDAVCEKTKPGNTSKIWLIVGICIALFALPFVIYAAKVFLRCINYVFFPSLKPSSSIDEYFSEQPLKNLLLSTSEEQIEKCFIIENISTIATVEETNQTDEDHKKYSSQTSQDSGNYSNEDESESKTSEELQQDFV
T1 sequence (looked up) 2: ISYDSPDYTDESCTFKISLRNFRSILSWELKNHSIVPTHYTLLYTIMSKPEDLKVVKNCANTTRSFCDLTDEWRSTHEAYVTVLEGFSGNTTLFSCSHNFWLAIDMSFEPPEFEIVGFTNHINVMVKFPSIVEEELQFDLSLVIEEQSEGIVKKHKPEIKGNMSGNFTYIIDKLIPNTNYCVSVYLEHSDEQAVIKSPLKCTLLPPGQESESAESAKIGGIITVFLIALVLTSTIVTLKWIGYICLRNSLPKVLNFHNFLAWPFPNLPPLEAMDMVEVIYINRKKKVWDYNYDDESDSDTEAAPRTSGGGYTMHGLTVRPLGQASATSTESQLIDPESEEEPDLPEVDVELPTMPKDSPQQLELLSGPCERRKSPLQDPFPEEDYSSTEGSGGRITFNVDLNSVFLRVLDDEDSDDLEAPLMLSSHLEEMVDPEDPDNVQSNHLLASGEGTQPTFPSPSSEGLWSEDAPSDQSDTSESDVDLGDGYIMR


Legend:
Assay in all cases: cell-based or functional assay
[1] = target: T1, interferon-alpha receptor (type I …)
[2] = target: T1, interferon-alpha receptor (type I …); remark: listed apart in the source
[3] = target: T1, interferon-alpha receptor (type I …); remark: listed apart in the source

Binder	HeLa-EMCV antiviral assay, antiviral activity relative to monoPEGylated IFN-alpha 2a [1] [fold]	HeLa/EMCV Antiviral activity relative to huIFN-alpha 2b [2] [fold]	HuH7/EMCV Antiviral activity relative to huIFN-alpha 2b [2] [fold]	TH1 activity (IFN-gamma in supernatants of naive T cells), Fold over IFN-alpha 2a [3] [fold]
MonoPEGylated 14epi18 (ligand, single 40 kDa branched PEG (mPEG2-NHS) on a lysine; positional isomers predominantly monoPEGylated at Lys122 and Lys135) MCDLPQTHSLGHRRTMMLLAQMRRISLFSCLKDRHDFRFPQEEFDGNHAQKVQAIFLFYEMMQQTFNLFSTKDSSAAWDETLLEKFYIELFQQMNDLEACVMQEVGVEETPLMNVDSILAVRKYFQRITLYLTEKKYSPCAWEVVRAEIMRSFSFSTNLQESLRSKE	> 10			
25epi19 (ligand) CDLPQTHSLSNRRTLMLMAQMRRISPFSCLKDRHDFGFPEEEFDGHQAQKVQAIFLLYELIQQTFNLFSTKDSSAAWDETLLEKFYIELFQQMNNLEACVIQEVGVEEIALMNVDSILAVRKYFRRITLYLTEKKYSPCAWEVVRAEIMRSFSFSTNLQESLRSKE		> 8	> 8	> 30
B9x14EC4 (ligand) CDLPQTHSLGHRRTMMLLAQMRRISLFSCLKDRHDFRFPQEEFDGNHFQKVQAIFLFYEMMQQTFNLFSTKDSSAAWDETLLEKFYIELFQQMNDLEACVMQEVGVEETPLMNVDSILAVRKYFQRITLYLTEKKYSPCAWEVVRAEIMRSFSFSTNLQESLRSKE		> 8	> 8	
14epi25 (ligand) CDLPQTHSLGHRRTMMLLAQMRRISLFSCLKDRHDFRFPQEEFDGNHLQKVQAISLFYEMMQQTFNLFSTKDSSAAWDETLLEKFYIELFQQMNDLEACVMQEVGVEETPAMNVDSILAVRKYFQRITLYLTEKKYSPCAWEVVRAEIMRSFSFSTNLQESLRSKE		> 8	> 8	
14epi16 (ligand) CDLPQTHSLGHRRTMMLLAQMRRISLFSCLKDRHDFRFPQEEFDGNHLQKVQAIALFYEMMQQTFNLFSTKDSSAAWDETLLEKFYIELFQQMNDLEACVMQEVGVEETPLMNVDSILAVRKYFQRITLYLTEKKYSPCAWEVVRAEIMRSFSFSTNLQESLRSKE		> 8	> 8	
14epi32 (ligand) CDLPQTHSLGHRRTMMLLAQMRRISLFSCLKDRHDFRFPQEEFDGNHLQKVPAISLFYEMMQQTFNLFSTKDSSAAWDETLLEKFYIELFQQMNDLEACVMQEVGVEETPLMKEDSILAVRKYFQRITLYLTEKKYSPCAWEVVRAEIMRSFSFSTNLQESLRSKE		> 8	> 8	
14epi22 (ligand) CDLPQTHSLGHRRTMMLLAQMRRISLFSCLKDRHDFRFPQEEFDGNHFQKVQAISLFYEMMQQTFNLFSTKDSSAAWDETLLEKFYIELFQQMNDLEACVMQEVGVEETPLMNVDSILAVRKYFQRITLYLTEKKYSPCAWEVVRAEIMRSFSFSTNLQESLRSKE		> 8		
14epi18 (ligand) CDLPQTHSLGHRRTMMLLAQMRRISLFSCLKDRHDFRFPQEEFDGNHAQKVQAIFLFYEMMQQTFNLFSTKDSSAAWDETLLEKFYIELFQQMNDLEACVMQEVGVEETPLMNVDSILAVRKYFQRITLYLTEKKYSPCAWEVVRAEIMRSFSFSTNLQESLRSKE		> 8	> 8	> 30
14epi20 (ligand) CDLPQTHSLGHRRTMMLLAQMRRISLFSCLKDRHDFRFPQEEFDGNHAQKVQAISLFYEMMQQTFNLFSTKDSSAAWDETLLEKFYIELFQQMNDLEACVMQEVGVEETPLMNVDSILAVRKYFQRITLYLTEKKYSPCAWEVVRAEIMRSFSFSTNLQESLRSKE		> 8	> 8	
14epi33 (ligand) CDLPQTHSLGHRRTMMLLAQMRRISLFSCLKDRHDFRFPQEEFDGNHFQKVPAISLFYEMMQQTFNLFSTKDSSAAWDETLLEKFYIELFQQMNDLEACVMQEVGVEETPLMKEDSILAVRKYFQRITLYLTEKKYSPCAWEVVRAEIMRSFSFSTNLQESLRSKE		> 8	> 8	
14epi31 (ligand) CDLPQTHSLGHRRTMMLLAQMRRISLFSCLKDRHDFRFPQEEFDGNHAQKVQAIALFYEMMQQTFNLFSTKDSSAAWDETLLEKFYIELFQQMNDLEACVMQEVGVEETPLMKEDSILAVRKYFQRITLYLTEKKYSPCAWEVVRAEIMRSFSFSTNLQESLRSKE		> 8		
14epi21 (ligand) CDLPQTHSLGHRRTMMLLAQMRRISLFSCLKDRHDFRFPQEEFDGNHFQKVQAIALFYEMMQQTFNLFSTKDSSAAWDETLLEKFYIELFQQMNDLEACVMQEVGVEETPLMNVDSILAVRKYFQRITLYLTEKKYSPCAWEVVRAEIMRSFSFSTNLQESLRSKE		> 8	> 8	
14epi34 (ligand) CDLPQTHSLGHRRTMMLLAQMRRISLFSCLKDRHDFRFPQEEFDGNHFQKVPAISLFYEMMQQTFNLFSTKDSSAAWDETLLEKFYIELFQQMNDLEACVMQEVGVEETPLMNEDSILAVRKYFQRITLYLTEKKYSPCAWEVVRAEIMRSFSFSTNLQESLRSKE		> 8	> 8	
14epi26 (ligand) CDLPQTHSLGHRRTMMLLAQMRRISLFSCLKDRHDFRFPQEEFDGNHLQKVQAISLFYEMMQQTFNLFSTKDSSAAWDETLLEKFYIELFQQMNDLEACVMQEVGVEETPLMKEDSILAVRKYFQRITLYLTEKKYSPCAWEVVRAEIMRSFSFSTNLQESLRSKE		> 8		
14epi19 (ligand) CDLPQTHSLGHRRTMMLLAQMRRISLFSCLKDRHDFRFPQEEFDGNHAQKVQAIALFYEMMQQTFNLFSTKDSSAAWDETLLEKFYIELFQQMNDLEACVMQEVGVEETPLMNVDSILAVRKYFQRITLYLTEKKYSPCAWEVVRAEIMRSFSFSTNLQESLRSKE		> 8	> 8	
14epi17 (ligand) CDLPQTHSLGHRRTMMLLAQMRRISLFSCLKDRHDFRFPQEEFDGNHLQKVQAISLFYEMMQQTFNLFSTKDSSAAWDETLLEKFYIELFQQMNDLEACVMQEVGVEETPLMNVDSILAVRKYFQRITLYLTEKKYSPCAWEVVRAEIMRSFSFSTNLQESLRSKE		> 8	> 8	
14epi15 (ligand) CDLPQTHSLGHRRTMMLLAQMRRISLFSCLKDRHDFRFPQEEFDGNHLQKVQAIFLFYEMMQQTFNLFSTKDSSAAWDETLLEKFYIELFQQMNDLEACVMQEVGVEETPLMNVDSILAVRKYFQRITLYLTEKKYSPCAWEVVRAEIMRSFSFSTNLQESLRSKE		> 8	> 8	
14epi29 (ligand) CDLPQTHSLGHRRTMMLLAQMRRISLFSCLKDRHDFRFPQEEFDGNHAQKVQAISLFYEMMQQTANLFSTKDSSAAWDETLLEKFYIELFQQMNDLEACVMQEVGVEETPLMNVDSILAVRKYFQRITLYLTEKKYSPCAWEVVRAEIMRSFSFSTNLQESLRSKE		> 8		
